B1: Cysteine-rich C-terminal protein 1 (Homo sapiens), Q9UGL9 (parent)
chain: MSSQQSAVSAKGFSKGSSQGPAPCPAPAPTPAPASSSSCCGSGRGCCGDSGCCGSSSTSCCCFPRRRRRQRSSGCCCCGGGSQRSQRSNNRSSGCCSGC
partner: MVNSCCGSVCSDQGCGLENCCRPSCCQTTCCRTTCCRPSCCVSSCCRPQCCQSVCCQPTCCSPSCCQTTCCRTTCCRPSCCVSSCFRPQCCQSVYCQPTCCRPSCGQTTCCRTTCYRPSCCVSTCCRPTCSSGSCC
B2: Dynein light chain 2, cytoplasmic (Homo sapiens), Q96FJ2 (parent)
chain: MSDRKAVIKNADMSEDMQQDAVDCATQAMEKYNIEKDIAAYIKKEFDKKYNPTWHCIVGRNFGSYVTHETKHFIYFYLGQVAILLFKSG
partner: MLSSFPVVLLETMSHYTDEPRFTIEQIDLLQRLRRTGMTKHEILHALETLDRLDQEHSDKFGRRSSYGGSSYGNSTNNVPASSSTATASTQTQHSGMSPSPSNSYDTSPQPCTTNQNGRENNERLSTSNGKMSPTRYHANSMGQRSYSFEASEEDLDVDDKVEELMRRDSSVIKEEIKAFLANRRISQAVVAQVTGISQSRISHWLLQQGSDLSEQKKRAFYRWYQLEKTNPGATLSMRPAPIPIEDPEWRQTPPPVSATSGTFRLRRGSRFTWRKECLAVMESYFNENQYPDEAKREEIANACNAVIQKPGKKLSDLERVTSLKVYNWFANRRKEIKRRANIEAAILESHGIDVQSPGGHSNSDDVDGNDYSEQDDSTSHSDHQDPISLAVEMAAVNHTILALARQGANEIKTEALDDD
B3: Epidermal growth factor receptor substrate 15-like 1 (Homo sapiens), Q9UBC2 (parent)
chain: MAAPLIPLSQQIPTGNSLYESYYKQVDPAYTGRVGASEAALFLKKSGLSDIILGKIWDLADPEGKGFLDKQGFYVALRLVACAQSGHEVTLSNLNLSMPPPKFHDTSSPLMVTPPSAEAHWAVRVEEKAKFDGIFESLLPINGLLSGDKVKPVLMNSKLPLDVLGRVWDLSDIDKDGHLDRDEFAVAMHLVYRALEKEPVPSALPPSLIPPSKRKKTVFPGAVPVLPASPPPKDSLRSTPSHGSVSSLNSTGSLSPKHSLKQTQPTVNWVVPVADKMRFDEIFLKTDLDLDGYVSGQEVKEIFMHSGLTQNLLAHIWALADTRQTGKLSKDQFALAMYFIQQKVSKGIDPPQVLSPDMVPPSERGTPGPDSSGSLGSGEFTGVKELDDISQEIAQLQREKYSLEQDIREKEEAIRQKTSEVQELQNDLDRETSSLQELEAQKQDAQDRLDEMDQQKAKLRDMLSDVRQKCQDETQMISSLKTQIQSQESDLKSQEDDLNRAKSELNRLQQEETQLEQSIQAGRVQLETIIKSLKSTQDEINQARSKLSQLHESRQEAHRSLEQYDQVLDGAHGASLTDLANLSEGVSLAERGSFGAMDDPFKNKALLFSNNTQELHPDPFQTEDPFKSDPFKGADPFKGDPFQNDPFAEQQTTSTDPFGGDPFKESDPFRGSATDDFFKKQTKNDPFTSDPFTKNPSLPSKLDPFESSDPFSSSSVSSKGSDPFGTLDPFGSGSFNSAEGFADFSQMSKPPPSGPFTSSLGGAGFSDDPFKSKQDTPALPPKKPAPPRPKPPSGKSTPVSQLGSADFPEAPDPFQPLGADSGDPFQSKKGFGDPFSGKDPFVPSSAAKPSKASASGFADFTSVS
partner: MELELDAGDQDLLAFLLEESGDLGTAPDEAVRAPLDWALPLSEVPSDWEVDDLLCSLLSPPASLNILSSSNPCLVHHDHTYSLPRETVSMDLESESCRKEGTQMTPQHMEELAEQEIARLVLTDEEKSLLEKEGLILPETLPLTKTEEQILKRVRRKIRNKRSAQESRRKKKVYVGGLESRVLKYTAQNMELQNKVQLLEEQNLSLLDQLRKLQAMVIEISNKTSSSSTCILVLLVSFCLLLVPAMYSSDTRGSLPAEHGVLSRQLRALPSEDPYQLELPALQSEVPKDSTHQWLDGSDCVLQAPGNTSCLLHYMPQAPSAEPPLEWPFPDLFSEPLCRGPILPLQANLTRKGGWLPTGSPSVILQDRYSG
B4: Histone-lysine N-methyltransferase SMYD1 (Homo sapiens), Q8NB12 (parent)
chain: MTIGRMENVEVFTAEGKGRGLKATKEFWAADIIFAERAYSAVVFDSLVNFVCHTCFKRQEKLHRCGQCKFAHYCDRTCQKDAWLNHKNECSAIKRYGKVPNENIRLAARIMWRVEREGTGLTEGCLVSVDDLQNHVEHFGEEEQKDLRVDVDTFLQYWPPQSQQFSMQYISHIFGVINCNGFTLSDQRGLQAVGVGIFPNLGLVNHDCWPNCTVIFNNGNHEAVKSMFHTQMRIELRALGKISEGEELTVSYIDFLNVSEERKRQLKKQYYFDCTCEHCQKKLKDDLFLGVKDNPKPSQEVVKEMIQFSKDTLEKIDKARSEGLYHEVVKLCRECLEKQEPVFADTNIYMLRMLSIVSEVLSYLQAFEEASFYARRMVDGYMKLYHPNNAQLGMAVMRAGLTNWHAGNIEVGHGMICKAYAILLVTHGPSHPITKDLEAMRVQTEMELRMFRQNEFMYYKMREAALNNQPMQVMAEPSNEPSPALFHKKQ
partner: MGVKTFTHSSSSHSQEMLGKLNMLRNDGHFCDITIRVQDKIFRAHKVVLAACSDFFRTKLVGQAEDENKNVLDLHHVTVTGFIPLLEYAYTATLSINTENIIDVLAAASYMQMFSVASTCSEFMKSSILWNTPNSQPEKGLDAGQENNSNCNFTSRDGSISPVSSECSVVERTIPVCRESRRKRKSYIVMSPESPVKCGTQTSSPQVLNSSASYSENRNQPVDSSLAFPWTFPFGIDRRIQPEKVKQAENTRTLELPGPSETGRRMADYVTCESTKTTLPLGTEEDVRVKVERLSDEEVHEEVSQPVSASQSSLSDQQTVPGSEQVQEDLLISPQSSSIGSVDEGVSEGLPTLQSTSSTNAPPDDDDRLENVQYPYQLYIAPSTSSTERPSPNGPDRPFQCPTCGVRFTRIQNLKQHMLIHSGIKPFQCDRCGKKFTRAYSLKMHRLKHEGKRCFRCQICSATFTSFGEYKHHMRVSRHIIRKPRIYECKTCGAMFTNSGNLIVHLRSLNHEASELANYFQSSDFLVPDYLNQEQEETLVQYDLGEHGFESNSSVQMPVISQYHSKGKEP

Variants of: B1
Settings: with kra42_human KRTAP4-2, Q9BYR5

| Variant | effect of a mutation on the interaction |
| --- | --- |
| MSSQQSAVSAKGFSKGSSQSPAPCPAPAPTPAPASSSSCCGSGRGCCGDSGCCGSSSTSCCCFPRRRRRQRSSGCCCCGGGSQRSQRSNNRSSGCCSGC [G20S] | with no effect |

Variants of: B2
Settings: with hmbx1_human HMBOX1, Q6NT76

| Variant | effect of a mutation on the interaction |
| --- | --- |
| MSDRKAVIKNADMSEDMQQDAVDCATQAMDKYNIEKDIAAYIKKEFDKKYNPTWHCIVGRNFGSYVTHETKHFIYFYLGQVAILLFKSG [E30D] | with no effect |

Variants of: B3
Settings: with creb3_human CREB3, O43889

| Variant | effect of a mutation on the interaction |
| --- | --- |
| P356L | with no effect |

Variants of: B4
Settings: with zbt44_human ZBTB44, Q8NCP5

| Variant | effect of a mutation on the interaction |
| --- | --- |
| MTIGRMENVEVFTAEGKGRGLKATKEFWAADIIFAERAYSAVVFDSLVNFVCHTCFKRQEKLHRCGQCKFAHYCDRTCQKDAWLNHKNECSAIKRYGKVPNENIRLAARIMWRVEREGTGLTEGCLVSVDDLQNHVEHFGEEEQKDLRVDVDTFLQYWPPQSQPFSMQYISHIFGVINCNGFTLSDQRGLQAVGVGIFPNLGLVNHDCWPNCTVIFNNGNHEAVKSMFHTQMRIELRALGKISEGEELTVSYIDFLNVSEERKRQLKKQYYFDCTCEHCQKKLKDDLFLGVKDNPKPSQEVVKEMIQFSKDTLEKIDKARSEGLYHEVVKLCRECLEKQEPVFADTNIYMLRMLSIVSEVLSYLQAFEEASFYARRMVDGYMKLYHPNNAQLGMAVMRAGLTNWHAGNIEVGHGMICKAYAILLVTHGPSHPITKDLEAMRVQTEMELRMFRQNEFMYYKMREAALNNQPMQVMAEPSNEPSPALFHKKQ [Q164P] | with no effect |

Reference: IntAct's records for PubMed 31515488
